This is an account of results in article PMC8979966.

Read-outs that look alike come from different tables or passages of the source.

For assay [1], the target named is TCR 868 (single-chain Vbeta-linker-Valpha). The assay is described as follows: YAMTAD: yeast mating between pMHC-displaying and TCR-displaying yeast, diploid selection, deep sequencing; 3 biological x 4 technical repeats. Conditions: S. cerevisiae mating; TCR 868 group vs control TCR A6 group; higher = more enriched with TCR 868 than with the control TCR A6; not monotonic in affinity (misses both ways); not an affinity; keep out of graded; partner unresolved; scale: ratio: mean frequency with TCR 868 / mean frequency with control TCR A6, each normalised to the 3* stop peptide; numbering: sequential-on-construct, sequence starts at 1.

Assay [2] has the same target. The settings on record: higher = more enriched with TCR 868 than with the control TCR A6; not monotonic in affinity (misses both ways); scale: ratio: mean frequency with TCR 868 / mean frequency with control TCR A6, each normalised to the 3* stop peptide; numbering: sequential-on-construct, sequence starts at 1.

As to “SL9 peptide (HIV-1 Gag, […]) presented by HLA-A*02:01 3A (SLANTVATL; codon GCG)”, the screen value in assay [1] came out at 1.01. Same read-out and setting: for “SL9 peptide (HIV-1 Gag, […]) presented by HLA-A*02:01 3A (SLANTVATL; codon GCT)” the value was 1.12; for “SL9 peptide (HIV-1 Gag, […]) presented by HLA-A*02:01 3C (SLCNTVATL; codon TGT)”, 1.1. Same read-out and setting: for “SL9 peptide (HIV-1 Gag, […]) presented by HLA-A*02:01 3D (SLDNTVATL; codon GAT)” the value was 1.15. For “SL9 peptide (HIV-1 Gag, […]) presented by HLA-A*02:01 3E (SLENTVATL; codon GAG)”, the screen value in assay [1] stood at 0.967. Same read-out and setting: as for “SL9 peptide (HIV-1 Gag, […]) presented by HLA-A*02:01 3F (SLFNTVATL; codon TTT)”, the figure is 2.02; as for “SL9 peptide (HIV-1 Gag, […]) presented by HLA-A*02:01 3G (SLGNTVATL; codon GGG)”, 0.959; as for “SL9 peptide (HIV-1 Gag, […]) presented by HLA-A*02:01 3G (SLGNTVATL; codon GGT)”, 0.969. On to “SL9 peptide (HIV-1 Gag, […]) presented by HLA-A*02:01 3H (SLHNTVATL; codon CAT)”, for which the screen value in assay [1] turned out to be 1.25. Still for that read-out and setting: for “SL9 peptide (HIV-1 Gag, […]) presented by HLA-A*02:01 3I (SLINTVATL; codon ATT)” the value was 1.28. Same read-out and setting: for “SL9 peptide (HIV-1 Gag, […]) presented by HLA-A*02:01 3K (SLKNTVATL; codon AAG)” the value was 1.21; for “SL9 peptide (HIV-1 Gag, […]) presented by HLA-A*02:01 3L (SLLNTVATL; codon CTG)”, 1.89; for “SL9 peptide (HIV-1 Gag, […]) presented by HLA-A*02:01 3L (SLLNTVATL; codon CTT)”, 2.02. On the same count and under the same terms, as for “SL9 peptide (HIV-1 Gag, […]) presented by HLA-A*02:01 3L (SLLNTVATL; codon TTG)”, the figure is 1.84; as for “SL9 peptide (HIV-1 Gag, […]) presented by HLA-A*02:01 3M (SLMNTVATL; codon ATG)”, 1.16. “SL9 peptide (HIV-1 Gag, […]) presented by HLA-A*02:01 3N (SLNNTVATL; codon AAT)”: the screen value in assay [1] worked out at 0.989. On the same count and under the same terms, as for “SL9 peptide (HIV-1 Gag, […]) presented by HLA-A*02:01 3P (SLPNTVATL; codon CCG)”, the figure is 1.03. Same read-out and setting: for “SL9 peptide (HIV-1 Gag, […]) presented by HLA-A*02:01 3P (SLPNTVATL; codon CCT)” the value was 0.983; for “SL9 peptide (HIV-1 Gag, […]) presented by HLA-A*02:01 3Q (SLQNTVATL; codon CAG)”, 1.16; for “SL9 peptide (HIV-1 Gag, […]) presented by HLA-A*02:01 3R (SLRNTVATL; codon AGG)”, 1.06. Same read-out and setting: as for “SL9 peptide (HIV-1 Gag, […]) presented by HLA-A*02:01 3R (SLRNTVATL; codon CGG)”, the figure is 1.09. “SL9 peptide (HIV-1 Gag, […]) presented by HLA-A*02:01 3R (SLRNTVATL; codon CGT)”: in assay [1], the screen value was found to be 1.04. Consider “SL9 peptide (HIV-1 Gag, […]) presented by HLA-A*02:01 3S (SLSNTVATL; codon AGT)”, for which, in assay [1], the screen value is 1.08. For the substance “SL9 peptide (HIV-1 Gag, […]) presented by HLA-A*02:01 3S (SLSNTVATL; codon TCG)”, the screen value in assay [1] worked out at 1.06. Still for that read-out and setting: for “SL9 peptide (HIV-1 Gag, […]) presented by HLA-A*02:01 3S (SLSNTVATL; codon TCT)” the value was 1.08. Regarding “SL9 peptide (HIV-1 Gag, […]) presented by HLA-A*02:01 3T (SLTNTVATL; codon ACG)”, the screen value in assay [2] was 1.07. Still for that read-out and setting: for “SL9 peptide (HIV-1 Gag, […]) presented by HLA-A*02:01 3T (SLTNTVATL; codon ACT)” the value was 1.11. For “SL9 peptide (HIV-1 Gag, […]) presented by HLA-A*02:01 3V (SLVNTVATL; codon GTG)”, the screen value in assay [1] worked out at 1.11. Same read-out and setting: as for “SL9 peptide (HIV-1 Gag, […]) presented by HLA-A*02:01 3V (SLVNTVATL; codon GTT)”, the figure is 1.16. On the same count and under the same terms, as for “SL9 peptide (HIV-1 Gag, […]) presented by HLA-A*02:01 3W (SLWNTVATL; codon TGG)”, the figure is 1.2.
